Experimental data taken from patent US11230719B2, “Retroviral vector having immune-stimulating activity” (DENOVO BIOPHARMA LLC, priority 2014, dated 2022).

Columns and labels:
[1] = tested on: HA-L2g cells transduced with pBA9b-hIFNg-yCD2 vector; assay: MTS cell viability of HA-L2g cells transduced with pBA9b-hIFNg-yCD2; format: cell-based, human
Experimental: The concentration PALA required to kill HA-L2g cells transduced with pBA9b-hIFNg-yCD2 vector is determined. Cells are seeded at 1e3 cells in 96-well plates the day before. At 24 hour post cell seeding, PALA at 1, 10, 50 and 100 μM are added to the culture for 4 consecutive days followed MTS assay to determine the cell viability. […] A range of cytosine concentrations are also determined (0.2, 1, 5 10 mM) in culture by performing the same experiment described above.

CTLL-2 = assay: IL-2 bioactivity, CTLL-2 proliferation (3H-thymidine incorporation); format: cell-based, mouse; conditions: produced by HA-L2 cells; vs recombinant IL-2 from E. coli
Experimental: CTLL-2 cell growth depends greatly on the presence of IL-2. The bioactivity of IL-2 is determined by the level of ^3H-thymidine incorporation into the DNA of proliferating cells. […] In addition, the level of CD expression from pBA9b-IFNg-yCD2 transduced HA-L2 cells is also detected by immunoblotting using an antibody against CD.

CT-26 = assay: mIFNg-induced MHC Class I upregulation in CT-26 cells (flow cytometry); format: cell-based, mouse; conditions: vs purified recombinant protein from E. coli
Experimental: (§1) To verify the bioactivity of recombinant hIFNg and mIFNg produced from the virus producer cell, upregulation of MHC Class I cell surface expression by flow cytometry was performed. Supernatant of known IFNg concentration were incubated with species-matched mouse colon carcinoma cell line, CT-26 or human fibrosarcoma cell line, HT1080. The degree of upregulation measured by mean fluorescent intensity (MFI) was compared to a standard which are purified recombinant protein expressed from E. coli. […] The recombinant hIFNg produced from the virus producer cells are 3-5 fold higher than that produced from E. coli (FIG. 2B). The difference is likely due to the differences in amino acid composition as well as glycosylation pattern.

TGFβ1, 2 and 3 = TGFβ1, 2 and 3 gene expression (Taqman) in cancer cell lines before and after IFNγ treatment; format: cell-based, human; conditions: panel of cancer cell lines including glioma
Description: A panel of cancer cell lines including glioma cell lines were surveyed for their TGFβ1, 2 and 3 expression before and after IFNγ treatment using human TGF isoform-specific Taqman primers (Life Technology). […] Some expression more TGFβ1 and others express more TGFβ2. In all cases, TGFβ3 expression is low. In contrast to IDO1 and PDL1, TGFβ1, 2 and 3 expression is not induced by IFNγ.

PDL1 = assay: PD-L1 cell surface expression in cancer cell lines before and after IFNγ induction; format: cell-based, human; conditions: panel of cancer cell lines including glioma
Description: Its expression can be further induced by IFNγ. A panel of cancer cell lines including glioma cell lines is surveyed for their PDL1 expression (anti-human PD-L1 antibody, eBioscience) before and after IFNγ induction.

IDO1 = IDO1 protein expression in glioma cell lines after IFNγ induction; format: cell-based, human; conditions: panel of glioma cell lines; level of induction varies
Description: A panel of glioma cell lines were surveyed for their IDO1 expression after IFNγ induction. […] GAPDH (anti-human GAPDH at 1:500, Cell Signaling) detection was included as a loading control.

HT1080 = assay: hIFNg-induced MHC Class I upregulation in HT1080 cells (flow cytometry); format: cell-based, human; conditions: MFI
Experimental: as §1

Nc1cc[nH]c(=O)n1 [cytosine]
cell viability with cytosine ([1]; 0.2, 1, 5, 10 mM): can tolerate cytosine in all concentrations tested

O=C(O)C[C@H](NC(=O)CP(=O)(O)O)C(=O)O [PALA, N-(phosphonacetyl)-L-aspartate]
cell viability with PALA ([1]; 1, 10, 50 and 100 μM, 4 consecutive days): sensitive to PALA at 10 μM and plateau at 50 μM

B1: mIL-2: recombinant mouse IL-2 produced by the HA-L2 cells (protein, UniProt P04351 21-169, looked up)
Interleukin-2: APTSSSTSSSTAEAQQQQQQQQQQQQHLEQLLMDLQELLSRMENYRNLKLPRMLTFKFYLPKQATELKDLQCLEDELGPLRHVLDLTQSKSFQLEDAENFISNIRVTVVKLKGSDNTFECQFDDESATVVDFLRRWIAFCQSIISTSPQ
IL-2 bioactivity (CTLL-2): comparable

B2: recombinant mIFNg produced by the virus producer cells: mouse IFNg in supernatant of virus producer cells (protein, UniProt P01580 23-155, looked up)
Interferon gamma: HGTVIESLESLNNYFNSSGIDVEEKSLFLDIWRNWQKDGDMKILQSQIISFYLRLFEVLKDNQAISNNISVIESHLITTFFSNSKAKKDAFMSIAKFEVNNPQVQRQAFNELIRVVHQLLPESSLRKRKRSRC
bioactivity (MHC Class I upregulation, MFI) (CT-26): comparable to that of recombinant mIFNg produced by E. coli

B3: IFNγ: interferon gamma used to induce IDO1 and PDL1 expression in cell lines (protein, UniProt P01579 24-161, looked up)
Interferon gamma: QDPYVKEAENLKKYFNAGHSDVADNGTLFLGILKNWKEESDRKIMQSQIVSFYFKLFKNFKDDQSIQKSVETIKEDMNVKFFNSNKKKRDDFEKLTNYSVTDLNVQRKAIHELIQVMAELSPAAKTGKRKRSQMLFRG
TGFβ1, 2 and 3 expression induced by IFNγ (TGFβ1, 2 and 3): not induced
PDL1 expression further induced by IFNγ (PDL1): most of the cells lines, but not all, tested here are responsive
IDO1 expression after IFNγ induction (IDO1): upregulated

B4: recombinant hIFNg produced from the virus producer cells: human IFNg in supernatant of virus producer cells (protein, UniProt P01579 24-161, looked up)
Interferon gamma: B3 Interferon gamma
bioactivity higher than that produced from E. coli (HT1080): 3-5 fold
